In assay [1] the target is T1, human PD-1 (human, UniProt Q15116 25-167, limits assumed).
T1 construct: also called hPD-1
Description: PD-L2-Fc format, calibrated on PD-L2(wt)-Fc, method not stated.

Assay [2] addresses T2, mouse PD-1 (mouse, UniProt Q02242 25-167, limits assumed).
T2 construct: also called mPD-1
T2 sequence (looked up): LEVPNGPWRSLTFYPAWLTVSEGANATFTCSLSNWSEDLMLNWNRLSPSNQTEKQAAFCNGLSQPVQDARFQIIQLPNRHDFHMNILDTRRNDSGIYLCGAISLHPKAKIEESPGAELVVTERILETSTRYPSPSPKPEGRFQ
The assay is described as above.

T1 sequence (Q15116 25-167 limits assumed): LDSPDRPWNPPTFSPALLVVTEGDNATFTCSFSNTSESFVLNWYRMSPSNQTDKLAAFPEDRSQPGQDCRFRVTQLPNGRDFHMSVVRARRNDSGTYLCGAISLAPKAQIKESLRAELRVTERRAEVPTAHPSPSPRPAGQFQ

B1: PD-L2(mut2)-Fc, S58V (Fc fusion)
chain 1: LFTVTVPKELYIIEHGSNVTLECNFDTGSHVNLGAITAVLQKVENDTSPHRERATLLEEQLPLGKASFHIPQVQVRDEGQYQCIIIYGVAWDYKYLTLKVKASYRKINTHILKVPETDEVELTCQATGYPLAEVSWPNVSVPANTSHSRTPEGLYQVTSVLRLKPPPGRNFSCVFWNTHVRELTLASIDLQSQMEPRTHPTGGGGSGGGDKTHTCPPCPAPEDEGGPSVFLFPPKPKDTLMISRTPEVTCVVVDVSHEDPEVKFNWYVDGVEVHNAKTKPREEQYNSTYRVVSVLTVLHQDWLNGKEYKCKVSNKALPAPIEKTISKAKGQPREPQVYVYPPSREEMTKNQVSLTCLVKGFYPSDIAVEWESNGQPENNYKTTPPVLDEDGSFALVSKLTVDKSRWQQGNVFSCSVMHEALHNHYTQKSLSLSPGK
chain 2: LFTVTVPKELYIIEHGSNVTLECNFDTGSHVNLGAITAVLQKVENDTSPHRERATLLEEQLPLGKASFHIPQVQVRDEGQYQCIIIYGVAWDYKYLTLKVKASYRKINTHILKVPETDEVELTCQATGYPLAEVSWPNVSVPANTSHSRTPEGLYQVTSVLRLKPPPGRNFSCVFWNTHVRELTLASIDLQSQMEPRTHPTGGGGSGGGDKTHTCPPCPAPEKKGGPSVFLFPPKPKDTLMISRTPEVTCVVVDVSHEDPEVKFNWYVDGVEVHNAKTKPREEQYNSTYRVVSVLTVLHQDWLNGKEYKCKVSNKALPAPIEKTISKAKGQPREPQVYVLPPSREEMTKNQVSLLCLVKGFYPSDIAVEWESNGQPENRYMTWPPVLDSDGSFFLYSKLTVDKSRWQQGNVFSCSVMHEALHNHYTQKSLSLSPGK
notes: also called PD-L2(S58V)
As for B1, the results for the Kd in assay [1] and in assay [2] were 350 nM and 230 nM, respectively.

B2: PD-L2(mut4)-Fc, T56V/S58V/Q60L (Fc fusion)
chain 1: LFTVTVPKELYIIEHGSNVTLECNFDTGSHVNLGAIVAVLLKVENDTSPHRERATLLEEQLPLGKASFHIPQVQVRDEGQYQCIIIYGVAWDYKYLTLKVKASYRKINTHILKVPETDEVELTCQATGYPLAEVSWPNVSVPANTSHSRTPEGLYQVTSVLRLKPPPGRNFSCVFWNTHVRELTLASIDLQSQMEPRTHPTGGGGSGGGDKTHTCPPCPAPEDEGGPSVFLFPPKPKDTLMISRTPEVTCVVVDVSHEDPEVKFNWYVDGVEVHNAKTKPREEQYNSTYRVVSVLTVLHQDWLNGKEYKCKVSNKALPAPIEKTISKAKGQPREPQVYVYPPSREEMTKNQVSLTCLVKGFYPSDIAVEWESNGQPENNYKTTPPVLDEDGSFALVSKLTVDKSRWQQGNVFSCSVMHEALHNHYTQKSLSLSPGK
chain 2: LFTVTVPKELYIIEHGSNVTLECNFDTGSHVNLGAIVAVLLKVENDTSPHRERATLLEEQLPLGKASFHIPQVQVRDEGQYQCIIIYGVAWDYKYLTLKVKASYRKINTHILKVPETDEVELTCQATGYPLAEVSWPNVSVPANTSHSRTPEGLYQVTSVLRLKPPPGRNFSCVFWNTHVRELTLASIDLQSQMEPRTHPTGGGGSGGGDKTHTCPPCPAPEKKGGPSVFLFPPKPKDTLMISRTPEVTCVVVDVSHEDPEVKFNWYVDGVEVHNAKTKPREEQYNSTYRVVSVLTVLHQDWLNGKEYKCKVSNKALPAPIEKTISKAKGQPREPQVYVLPPSREEMTKNQVSLLCLVKGFYPSDIAVEWESNGQPENRYMTWPPVLDSDGSFFLYSKLTVDKSRWQQGNVFSCSVMHEALHNHYTQKSLSLSPGK
Consider B2, for which the Kd came out at 255 nM in assay [1] and 220 nM in assay [2].

The term Kd denotes the equilibrium constant for the complex coming apart.

Source of the values: patent US20240392004A1 (IMMUNOWAKE, published 2024).
